Source: patent US20240360238A1 (MAGENTA THERAPEUTICS, published 2024)
Where a chain is given by its changes, count along the chain named.

Experiments:
[1] = molecular target: T1, CD117 on Kasumi-1 cells and primary human CD34+ bone marrow cells (human, UniProt P10721 26-976); assay: cell-based or functional assay
[2] = molecular target: T1, CD117 on Kasumi-1 cells and primary …; assay: cell-based or functional assay; remark: listed apart in the source
[3] = molecular target: T2, purified human CD117 ectodomain (R&D Systems #332-SR) (human, UniProt P10721 26-524); assay: BLI, IgG on anti-human Fc sensor, 33 and 11 nM ectodomain;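 note: Kd, kon and koff are apparent values, with Kd reported as the apparent monovalent affinity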
T2 construct: extracellular domain; Bought protein; also called c-kit; purified recombinant human CD117 ectodomain
T2 sequence (P10721 26-524): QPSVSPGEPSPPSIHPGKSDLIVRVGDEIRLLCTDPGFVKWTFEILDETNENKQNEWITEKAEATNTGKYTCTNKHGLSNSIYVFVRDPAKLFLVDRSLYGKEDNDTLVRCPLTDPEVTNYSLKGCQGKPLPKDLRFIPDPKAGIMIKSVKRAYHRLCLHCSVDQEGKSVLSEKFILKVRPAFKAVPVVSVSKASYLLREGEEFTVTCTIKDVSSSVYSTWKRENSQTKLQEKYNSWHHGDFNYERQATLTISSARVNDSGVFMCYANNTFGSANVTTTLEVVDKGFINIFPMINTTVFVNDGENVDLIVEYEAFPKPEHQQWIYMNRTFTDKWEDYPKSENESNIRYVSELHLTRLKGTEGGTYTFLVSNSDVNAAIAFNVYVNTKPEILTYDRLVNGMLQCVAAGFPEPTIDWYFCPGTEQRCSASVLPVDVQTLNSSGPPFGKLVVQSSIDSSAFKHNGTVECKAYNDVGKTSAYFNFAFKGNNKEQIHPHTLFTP

[4] = molecular target: T2, purified human CD117 ectodomain (R&D …); assay: BLI; kdis compared to HC-1/LC-1 (Ab1)
[5] = molecular target: T2, purified human CD117 ectodomain (R&D …); assay: BLI (Octet Red96), IgG on anti-human Fc sensor, 33.3 and 11 nM ectodomain
[6] = molecular target: T1, CD117 on Kasumi-1 cells and primary …; assay: cell-based or functional assay; remark: listed apart in the source

T1 sequence (P10721 26-976): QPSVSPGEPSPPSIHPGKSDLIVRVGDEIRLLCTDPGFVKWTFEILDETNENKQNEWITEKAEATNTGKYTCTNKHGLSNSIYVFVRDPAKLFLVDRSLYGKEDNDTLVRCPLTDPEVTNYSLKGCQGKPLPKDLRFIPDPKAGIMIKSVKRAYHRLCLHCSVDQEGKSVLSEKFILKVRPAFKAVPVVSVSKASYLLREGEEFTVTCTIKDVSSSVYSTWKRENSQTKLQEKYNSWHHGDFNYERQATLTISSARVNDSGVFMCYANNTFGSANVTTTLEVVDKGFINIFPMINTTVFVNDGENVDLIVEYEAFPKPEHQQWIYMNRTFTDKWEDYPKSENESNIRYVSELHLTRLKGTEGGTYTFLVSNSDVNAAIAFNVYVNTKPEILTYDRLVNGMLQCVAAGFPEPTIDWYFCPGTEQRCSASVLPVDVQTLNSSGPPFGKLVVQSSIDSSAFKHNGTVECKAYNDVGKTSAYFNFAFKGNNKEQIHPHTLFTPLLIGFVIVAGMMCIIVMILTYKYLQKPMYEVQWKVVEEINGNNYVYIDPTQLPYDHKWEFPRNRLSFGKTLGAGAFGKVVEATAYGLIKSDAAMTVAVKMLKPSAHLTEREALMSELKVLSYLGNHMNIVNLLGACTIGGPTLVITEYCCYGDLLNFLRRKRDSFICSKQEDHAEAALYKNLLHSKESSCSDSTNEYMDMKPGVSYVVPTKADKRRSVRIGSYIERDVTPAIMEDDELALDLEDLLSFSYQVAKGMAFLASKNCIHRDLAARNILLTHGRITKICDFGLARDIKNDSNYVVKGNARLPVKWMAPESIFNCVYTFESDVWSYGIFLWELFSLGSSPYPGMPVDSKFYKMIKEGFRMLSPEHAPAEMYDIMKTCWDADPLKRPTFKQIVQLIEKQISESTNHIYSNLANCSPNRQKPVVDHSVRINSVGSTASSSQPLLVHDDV

B1: HC-85/LC-85 ADC (Ab85 conjugated to an amatoxin) (antibody, V domains shown)
VH: EVQLVQSGAEVKKPGESLKISCKGSGYSFTNYWIGWVRQMPGKGLEWMAIINPRDSDTRYRPSFQGQVTISADKSISTAYLQWSSLKASDTAMYYCARHGRGYEGYEGAFDIWGQGTLVTVSS
VL: DIQMTQSPSSLSASVGDRVTITCRSSQGIRSDLGWYQQKPGKAPKLLIYDASNLETGVPSRFSGSGSGTDFTLTISSLQPEDFATYYCQQANGFPLTFGGGTKVEIK
modifications: antibody conjugated to an amatoxin; site not stated
- IC50 (M), Kasumi-1 cell killing (Celltiter Glo, 3 days) [1]: 1.76e-11 M
- % efficacy, killing of primary human CD34+CD90+ cells [2]: 71.2%
- IC50, killing of primary human CD34+CD90+ cells (5 days, flow cytometry counts) [2]: 0.00574 nM

B2: HC-85/LC-85 (Ab85) (antibody, V domains shown)
VH: B1 VH
VL: B1 VL
notes: Purified IgG, hIgG1/hKappa; also called Antibody 85
- Kd [3]: 0.835 nM
- koff [3]: 0.000434 s⁻¹
- kon [3]: 520000 M⁻¹ s⁻¹
- Fold improvement (off-rate) [4]: 5.2 fold
- Kd [5]: 0.835 nM
- koff [5]: 0.000434 s⁻¹
- kon [5]: 520000 M⁻¹ s⁻¹

B3: CD117-ADC (anti-CD117 antibody CK6 conjugated to amatoxin) (antibody, V domains shown)
VH: QVQLVQSGAAVKKPGESLKISCKGSGYRFTSYWIGWVRQMPGKGLEWMGIIYPGDSDTRYSPSFQGQVTISAGKSISTAYLQWSSLKASDTAMYYCARHGRGYNGYEGAFDIWGQGTMVTVSS
VL: AIQLTQSPSSLSASVGDRVTITCRASQGISSALAWYQQKPGKAPKLLIYDASSLESGVPSRFSGSGSGTDFTLTISSLQPEDFATYYCQQFNSYPLTFGGGTKVEIK
modifications: antibody conjugated to an amatoxin; site and linker not stated for this assay
- IC50 (M), Kasumi-1 cell killing (Celltiter Glo, 3 days) [1]: 1.48e-11 M
- IC50, in vitro killing of Kasumi-1 cells (Celltiter Glo) [6]: 1600 nM
- IC50, in vitro killing of primary human CD34+ bone marrow cells [6]: 21000 nM
- % efficacy, killing of primary human CD34+CD90+ cells [2]: 70.8%
- IC50, killing of primary human CD34+CD90+ cells (5 days, flow cytometry counts) [2]: 0.00977 nM

B4: HC-249/LC-249 ADC (Ab249 conjugated to an amatoxin) (antibody, V domains shown)
VH: B3 VH with Q1E, A10E, S31T, Y32S, G73D, R101L, M118L
VL: B1 VL with S25A, R30G, D32A, G34A, A91L, F94Y, G100Q, K103R, V104L
modifications: antibody conjugated to an amatoxin; site not stated
- IC50 (M), Kasumi-1 cell killing (Celltiter Glo, 3 days) [1]: 2.5e-11 M
- % efficacy, killing of primary human CD34+CD90+ cells [2]: 52%
- IC50, killing of primary human CD34+CD90+ cells (5 days, flow cytometry counts) [2]: 0.00667 nM
